Source: the supplement of paper PMC9732359
± gives the uncertainty stated by the source.

Assay: protein stability index of a GFP-peptide fusion (yeast GPS) (PSI 1-4); higher = more stable; sorted into four equal gates, so the index is relative within each strain
Outline: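 Tiled 17-residue yeast protein peptides were fused downstream of GFP in a plasmid that also expresses Cherry, and the pooled library was carried in yeast. Mid-log cultures in leucine-free medium were sorted into four equal gates by GFP/Cherry fluorescence ratio, and plasmids from each gate were PCR-amplified and Illumina-sequenced, with reads assigned to strains by barcodes. The protein stability index for each peptide was each gate's read frequency times its gate number, summed.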

Sequence	protein stability index (doa10∆)	protein stability index (pdr5∆)	protein stability index (san1∆)	protein stability index (ubr1∆)
TKSKNKTLIGLQGIVIW [POP4]	2.93 ± 0.05	2.76 ± 0.051	2.76 ± 0.044	2.73 ± 0.034
LNEAQGHIVSLELTTGA [SMD3]	1.47 ± 0.053	1.9 ± 0.059	1.59 ± 0.14	1.85 ± 0.072
EMGYLIQISKLHYTPIE [RPC82]	1.51 ± 0.063	2.06 ± 0.081	1.95 ± 0.13	1.47 ± 0.055
KEYENHSGELMRQQSKE [SMC1]	2.83 ± 0.1	2.85 ± 0.077	2.9 ± 0.05	3 ± 0.082
TCSYVEEAGSPLVYRHE [RPB9]	3.06 ± 0.13	2.92 ± 0.15	3.28 ± 0.11	2.75 ± 0.28
IHLKQKLSESLDTRKEL [SMC3]		3.03 ± 0.24	3.4 ± 0.18	3.49 ± 0.15
SFLEGSKALNSILESSM [RGR1]	1.81 ± 0.19	1.59 ± 0.1	3.09 ± 0.21	2.02 ± 0.13
DPLVSLMMVEKVPDSTY [RPT6]	2.59 ± 0.087	2.93 ± 0.064	2.49 ± 0.069	2.89 ± 0.063
KGEQIAIFPYQDPIFGS [ECM29]	2.09 ± 0.048	2.28 ± 0.053	2.37 ± 0.067	2.23 ± 0.039
TYRYVSVSVLVDRLKIG [RPS25A]	2.28 ± 0.091	1.48 ± 0.08	1.72 ± 0.072	1.45 ± 0.039
KEAVFKSLGVKSLGGGA [FAS2]	3.26 ± 0.078	3.36 ± 0.12	3.25 ± 0.069	3.41 ± 0.092
DLSTLVHSSSPSTSSNM [GAL11]	2.77 ± 0.066	2.91 ± 0.069	2.71 ± 0.082	2.78 ± 0.039
RIHTNDNDIMNLGSRTK [SSN3]	3.08 ± 0.048	2.97 ± 0.043	2.95 ± 0.035	3.03 ± 0.037
AKETHTKPSETPATIVK [YOR098C/NUP1]	3.28 ± 0.092	3.17 ± 0.066	2.87 ± 0.064	3.12 ± 0.066
SEEVDDLSMVPKMKDEE [SNF2]	2.78 ± 0.17		3.29 ± 0.12	3.59 ± 0.22
YLDADVAKLANWFLEVY [YML031W/NDC1]	2.45 ± 0.081	2.63 ± 0.099	2.91 ± 0.12	2.79 ± 0.077
ISSPIVANSPNKRLDVI [YDL088C/ASM4]	2.71 ± 0.23	2.88 ± 0.14		2.85 ± 0.13
NINNSSVAEKEEIRSQI [SWI3]	2.64 ± 0.072	2.19 ± 0.077	2.2 ± 0.075	2.51 ± 0.059
SSTGVPESIDTILSSKL [SRB2]	2.62 ± 0.19	2.92 ± 0.13	2.93 ± 0.075	3.04 ± 0.075
VDSGSNDAMAGGFTAYG [RPO21]	3.26 ± 0.16		3.37 ± 0.26	
YSDENDPSISNNIRQAI [RRP4]	2.53 ± 0.077	2.75 ± 0.066	3 ± 0.065	2.47 ± 0.061
ARHKKKVENLDYMYENG [YML031W/NDC1]	3.41 ± 0.15	3.37 ± 0.14	3.08 ± 0.12	
IPGEEVEETEVPTVPPS [MED4]	2.66 ± 0.11	2.42 ± 0.11	2.44 ± 0.13	2.62 ± 0.059
DNTVRTSANGIVQFTYG [RPO31]	2.67 ± 0.1	2.76 ± 0.1	2.25 ± 0.17	2.53 ± 0.11
WLWPLCRGELKADIGKP [CDC53]	2.11 ± 0.078	2.06 ± 0.062	1.98 ± 0.089	2.43 ± 0.09
SPIPFPPLTYKNDTKIL [PRP8]	2.91 ± 0.057	2.56 ± 0.045	2.73 ± 0.059	2.24 ± 0.029

Sequence	protein stability index (doa10∆)	protein stability index (pdr5∆)	protein stability index (san1∆)	protein stability index (ubr1∆)
ADVYAKALEGKDLKEIL [RPP1B]	3.45 ± 0.22		3.51 ± 0.14	3.36 ± 0.2
LCVLWDDLQSSVIPEVD [YCG1]	1.88 ± 0.095	1.87 ± 0.068	2.01 ± 0.087	2.34 ± 0.075
REDTPLSQNESTRASTV [ISW2]	2.96 ± 0.067	3.11 ± 0.058	2.96 ± 0.052	2.97 ± 0.048
LQDEVMNIKPVQKQTRA [RPS2]	2.91 ± 0.2	3.12 ± 0.18	2.42 ± 0.14	3.63 ± 0.19
YMRLWEINETEFIRCGC [RMP1]	3.31 ± 0.13	3.46 ± 0.14	3.55 ± 0.13	3.33 ± 0.049
EPDLESQISKAEMEADS [SMC4]	2.89 ± 0.078	3.39 ± 0.18	3.43 ± 0.069	2.55 ± 0.17
ALIRRDFTLIPRMASVF [CDC53]	2.12 ± 0.13	2.39 ± 0.072	2.64 ± 0.16	2.17 ± 0.14
ILLQHKEKLTVQDCRYS [POP1]	2.53 ± 0.054	2.45 ± 0.049	2.31 ± 0.05	2.42 ± 0.03
NTKVPVDIVNQWFLQYQ [YML103C/NUP188]	1.78 ± 0.044	2.15 ± 0.038	1.85 ± 0.058	2.18 ± 0.034
EELINAAKGSSTSYAIK [RPS5]	2.66 ± 0.077	1.88 ± 0.051	1.43 ± 0.068	1.76 ± 0.044
RDRTSGQKLLAIKYGYE [SRB4]	2.9 ± 0.15	3.17 ± 0.11	3.11 ± 0.084	3.23 ± 0.096
VQRQIEQQKGQQTAQTQ [SNF5]	3.41 ± 0.08	3.3 ± 0.078	3.3 ± 0.061	3.07 ± 0.055
EMMKMMQDPQMQQMAKQ [SRP54]	3.07 ± 0.057	2.76 ± 0.067	2.77 ± 0.039	2.67 ± 0.038
ALRLSMEEEQQRQERLR [RPN10]	3.33 ± 0.16	3.06 ± 0.26	3.36 ± 0.065	3.38 ± 0.11
KERKLRENIAMLKRFFP [SMC1]	2.38 ± 0.18	2.52 ± 0.14	2.65 ± 0.23	2.59 ± 0.16
DVQKSSDSSSEDEVKVE [YLR335W/NUP2]	2.7 ± 0.098	2.87 ± 0.092	2.69 ± 0.099	2.31 ± 0.044
LLKKATKPEVASDMSDE [CDC53]	2.67 ± 0.11	2.61 ± 0.14	2.84 ± 0.086	2.89 ± 0.11
IMWQLLDGVSYLHQNWV [SSN3]	1.61 ± 0.074	1.59 ± 0.08	1.23 ± 0.12	1.75 ± 0.076
FEKKELQEKFLNQIATL [IRR1]	1.08 ± 0.056	1.23 ± 0.057	1.15 ± 0.1	1.04 ± 0.062
VTKILPHLIIQNHNSKS [IRR1]	1.41 ± 0.11	1.19 ± 0.072	1.16 ± 0.13	1.15 ± 0.073
LSQVYPTLVRSVISGNL [CSN12]	2.54 ± 0.072	2.92 ± 0.08	2.83 ± 0.1	2.48 ± 0.078
LAIKDSKKRFAAIWTLC [RPO21]	1.9 ± 0.045	1.92 ± 0.045	1.8 ± 0.072	2.1 ± 0.036
GGLQKGKLVVSQEMVPR [SIR3]	3.03 ± 0.07	2.83 ± 0.13	2.32 ± 0.076	3.23 ± 0.12
KNLKPQEQLKNVKNDVS [YIL149C/MLP2]	3.23 ± 0.089	3.21 ± 0.067	2.51 ± 0.1	3.01 ± 0.096
AILVPMTVNDQPIEKNG [YJR042W/NUP85]	2.44 ± 0.11	1.79 ± 0.073	2.84 ± 0.074	2.8 ± 0.079
LSPSGHKTFLVANVKDL [RPL32]		3.33 ± 0.26	2.84 ± 0.095	2.84 ± 0.17
